Laboratory results: patent publication US20230312739A1 (BIOTHEUS, published 2023)

Key:
[1] = molecular target: T1, human CD73 on the cell surface (tumor cells endogenously expressing human CD73; CHOS-human CD73) (human, UniProt P21589 27-549); assay: full-field cell scanning analyzer (Celigo), percent fluorescent cells, H2030 cells endogenously expressing human CD73
T1 construct: The endogenous CD73 of the human tumor lines (MDA-MB-231, Calu6, SK-ME-S, H2030, SKLU1, BT549, A375, HCC44) is treated as the same protein
T1 sequence: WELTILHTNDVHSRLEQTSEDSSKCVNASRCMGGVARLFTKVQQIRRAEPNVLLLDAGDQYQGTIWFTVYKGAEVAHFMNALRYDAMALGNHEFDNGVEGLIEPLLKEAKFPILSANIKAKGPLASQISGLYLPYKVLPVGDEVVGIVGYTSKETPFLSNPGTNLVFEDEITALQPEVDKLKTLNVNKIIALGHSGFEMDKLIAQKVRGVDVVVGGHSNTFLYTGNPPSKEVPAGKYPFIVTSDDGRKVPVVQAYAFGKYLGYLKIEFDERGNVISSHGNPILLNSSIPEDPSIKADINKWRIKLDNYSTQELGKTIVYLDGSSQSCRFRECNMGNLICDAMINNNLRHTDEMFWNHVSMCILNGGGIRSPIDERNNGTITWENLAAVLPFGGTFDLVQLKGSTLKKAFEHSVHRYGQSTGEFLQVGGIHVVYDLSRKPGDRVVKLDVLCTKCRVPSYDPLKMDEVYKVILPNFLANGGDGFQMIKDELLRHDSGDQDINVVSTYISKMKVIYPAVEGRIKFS
Experimental: (§1) Experimental method: 10,000 cells were plated on a flat-bottom 96-well plate with 100 μL DMEM+10% FBS/well, cultured overnight so that the cells adhered to the well, and the supernatant was discarded on the next day. Serial 3-fold dilutions of antibody for 8 points were performed by diluting ⅓ of the total volume (100 μL) in 200 μL DMEM. 100 μL of the diluted antibody was added to each well of the cell plate (the supernatants of fused clones or subclones were used for screening), 100 μL of DMEM was added to the corresponding negative control well, and incubation was performed at room temperature for 1 hour. After the supernatant was discarded, 100 μL of secondary antibody (DyLight488 goat anti-mouse IgG (Abcam, Cat. No. ab97015)) was added to each well at a concentration of 5 μg/mL (diluted in DMEM), and incubation was performed for 0.5 hours at room temperature. After staining, the supernatant was discarded, followed by washing once with PBS+2% FBS, then 100 μL of PBS+2% FBS was added to each well, and then reading was performed on analyzer. A full-field cell scanning analyzer (Nexcelom Company, model Celigo® Image Cytometer) was used to measure the reading of the experimental plate. […] The binding effect of the anti-CD73 antibody to the CD73-expressing cell line was determined according to the percentage. […]

[2] = molecular target: T1, human CD73 on the cell surface (tumor …); assay: full-field cell scanning analyzer (Celigo), percent fluorescent cells, SK-ME-S cells endogenously expressing human CD73
Experimental: as §1

[3] = molecular target: T1, human CD73 on the cell surface (tumor …); assay: full-field cell scanning analyzer (Celigo), percent fluorescent cells, CHOS cells recombinantly expressing human CD73
Experimental: as §1

murine CD73 on 4T1 cells = molecular target: T2, murine CD73 on 4T1 cells (murine, UniProt Q61503 29-551); assay: cell binding on adherent 4T1 cells, DyLight488 goat anti-mouse IgG, full-field cell scanning analyzer (Celigo), % fluorescent cells
T2 construct: whole, on cells; also called 4T1 (endogenously expressing murine CD73)
T2 sequence (looked up): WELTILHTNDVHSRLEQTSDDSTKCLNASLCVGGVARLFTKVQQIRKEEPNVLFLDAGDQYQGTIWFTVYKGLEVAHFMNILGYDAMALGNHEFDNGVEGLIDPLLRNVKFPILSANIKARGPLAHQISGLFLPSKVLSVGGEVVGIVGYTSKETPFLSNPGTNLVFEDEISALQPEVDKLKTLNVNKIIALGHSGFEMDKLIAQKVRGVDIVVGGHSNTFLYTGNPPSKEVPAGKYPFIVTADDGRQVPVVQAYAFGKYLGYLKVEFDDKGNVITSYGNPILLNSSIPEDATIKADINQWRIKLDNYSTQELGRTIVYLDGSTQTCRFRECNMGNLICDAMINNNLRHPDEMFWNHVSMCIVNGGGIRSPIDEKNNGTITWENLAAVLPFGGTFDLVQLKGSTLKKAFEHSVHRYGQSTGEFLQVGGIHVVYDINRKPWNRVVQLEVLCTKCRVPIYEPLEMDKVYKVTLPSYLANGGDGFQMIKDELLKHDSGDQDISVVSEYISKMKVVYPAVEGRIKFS
Experimental: as §1

[4] = molecular target: T1, human CD73 on the cell surface (tumor …); assay: full-field cell scanning analyzer (Celigo), percent fluorescent cells, SKLU1 cells endogenously expressing human CD73
Experimental: as §1

[5] = molecular target: T1, human CD73 on the cell surface (tumor …); assay: full-field cell scanning analyzer (Celigo), percent fluorescent cells, BT549 cells endogenously expressing human CD73
Experimental: as §1

B1: murine antibody 13D12 (antibody, V domains shown)
VH: DVKLQESGPAMVKPSQSLSLTCTVTGYSITSGYDWHWIRLFPGNKLEWMGYISYSGYTDYSPSLKSRISITHDTSKNHFFLKLHSVTTEDTATYYCTRGDHSYAMDYWGQGTSVTVS
VL: DIVMTQSHKFMSTSVGDRVSITCKASQAVGTAVAWYQQKPGQSPKLLIYWASSRHTGVPDRFTGSRSGTDFTLTISSVQSEDLADYFCQQYSSYPLTFGGGTNLEIK
notes: Mouse monoclonal antibody purified from hybridoma supernatant; also called mouse monoclonal antibody 13D12
[1]
  EC50: 0.46 µg/mL
[2]
  EC50: 1.72 µg/mL
[3]
  EC50: 0.44 µg/mL
Murine CD73 on 4T1 cells
  binding result: no binding
[4]
  EC50: 2.46 µg/mL
[5]
  EC50: 1.78 µg/mL
